Legend:
[1] = tested on: MDA-MB-231 cells; assay: Apoptosis, Annexin V-FITC flow cytometry; assay type: cell-based, human; details: 100 μM etoposide, 48 hrs
Method: (§1) Cells were seeded into 96-well dishes at a density of 1×10^4 cell per well in complete medium with varying doses of cmvIL-10, and then cell viability measured at the indicated time points using the Cell Titer Glo Assay kit according to manufacturer's instructions (Promega). DNA synthesis was measured in cells prepared in the same way using the BrdU Cell Proliferation ELISA Kit (Roche, Basel, Switzerland). For experiments using inhibitors, cells were cultivated in 96-well dishes as above with a final concentration of 10 μM inhibitor and BrdU incorporation evaluated after 72 hrs. For cell counts, cells were seeded into 6-well plates at a density of 2×10^5 cells per well, harvested via trypsinization, and counted using a hemacytometer at the indicated time points. The TACS Annexin V-FITC Detection Kit (Trevigen, Gaithersburg, Md.) was used to stain cells harvested from 70% confluent T75 flasks that had been treated with 100 μM etoposide for 48 hrs in the presence or absence of 100 ng/ml cmvIL-10. Cells were then analyzed via flow cytometry to detect fluorescence. For viability assays, Cell Titer Glo reagent was utilized to quantify cells that had been seeded into 96-well dishes at a density of 1×10^4 cell per well in complete medium with varying doses of etoposide in the presence or absence of 100 ng/ml cmvIL-10 as indicated

[2] = molecular target: T1, CXCR4 (Homo sapiens, UniProt P61073); assay: Calcium flux assay in HEK293 cells; assay type: cell-based; details: CXCL12 0.1 μg/ml alone
T1 construct: HEK293 cells, which endogenously express both CXCR4 and IL-10R; endogenous in cells; host or cells: HEK293
Method: Calcium flux assays were performed as described (Arnolds K L, et al. Virology 439:122-131.). Briefly, cells were resuspended in 2 mls calcium assay buffer (RPMI with 25 mM of HEPES) at a density of 5×10^5 cells/ml per sample. Each sample was labeled with 2 μl of Fluo-4AM (Invitrogen, Grand Island, N.Y.), wrapped in foil, at 37° C. for 30 minutes with agitation at 10-minute intervals. Following incubation, each sample was pelleted, resuspended in calcium assay buffer, and transferred into an eppendorf tube for flow cytometry using the BD C6 Accuri. Fluorescence intensity of each sample was measured for 20 seconds to establish baseline, then stimulus (CXCL12, in the presence or absence of cmvIL-10, as indicated) was added via micropipetting directly into the sample while fluorescence intensity was measured. Kinetic fluorescence intensity analysis was performed with FlowJo software v9.4.9 (FlowJo, Ashland, Oreg.). Purified recombinant cmvIL-10 was purchased from R&D Systems (Minneapolis, Minn.) and purified recombinant CXCL12 was purchased from Peprotech (Rocky Hill, N.J.). For each calcium flux assay, ionomycin (Sigma) was a positive control for Fluo-4AM loading and PBS served as a negative control for the addition of stimulus.

[3] = tested on: HEK293 cells; assay: Transwell migration toward CXCL12; assay type: cell-based, human; details: 4 hours, 5.0 μm filter
Method: Transwell migration assays were performed by suspending cells at a density of 5×10^4 cells/ml in migration media (MEM or RPMI […] media plus 0.5% FBS). A total of 75 μl of cells was placed onto the upper chamber of a 96-well transwell system with 5.0 μm pores (Corning-Costar, Corning, N.Y.). The lower chamber contained 235 μl of migration media with CXCL12 plus or minus cmvIL-10 as indicated. Plates were incubated for four hours at 37° C., and then cells that traversed through the filter into the lower chamber were quantified via the addition of CellTitre-Glo reagent (Promega, Madison, Wis.) according to manufacturer's instructions.

[4] = tested on: MDA-MB-231 cells; assay: DNA synthesis, BrdU Cell Proliferation ELISA; assay type: cell-based, human; details: 10 ng/ml of each cytokine, 72 hrs
Method: as §1

[5] = tested on: Stat3; assay: Western blot for Stat3 phosphorylation in MDA-MB-231 cells; assay type: cell-based, human; details: 100 ng/ml, 15 min
Method: (§2) For western blotting, cells were treated with 100 ng/ml cmvIL-10, hIL-10, IFNγ or PBS for 15 min, then harvested into cell lysis buffer (150 mM NaCl, 20 mM HEPES, 0.5% Triton-X-100, 1 mM NaOV4, 1 mM EDTA, 0.1% NaN3). Lysates were clarified, proteins were separated via SDS-PAGE, and then transferred to a nitrocellulose membrane. Then membrane was incubated in blocking solution (5% milk+1×TBS-T) for 1 hr, then probed with primary antibody at a 1:1000 dilution (total Stat3 or pStat3, total Stat1 or pStat1) in blocking solution overnight at 4° C. After washing, the membranes were incubated with a 1:2000 dilution of appropriate AP-conjugated secondary antibody and bands were detected using Western Blue stabilized AP substrate (Promega, Madison, Wis.). For analysis of secreted proteins, supernatants were collected at various time points, analyzed by SDS-PAGE and then immunoblotted as above for cmvIL-10, hIL-10, or serpin E1/PAI.

[6] = tested on: Stat1; assay: Western blot for Stat1 phosphorylation in MDA-MB-231 cells; assay type: cell-based, human; details: 100 ng/ml, 15 min
Method: as §2

T1 sequence (P61073 whole entry): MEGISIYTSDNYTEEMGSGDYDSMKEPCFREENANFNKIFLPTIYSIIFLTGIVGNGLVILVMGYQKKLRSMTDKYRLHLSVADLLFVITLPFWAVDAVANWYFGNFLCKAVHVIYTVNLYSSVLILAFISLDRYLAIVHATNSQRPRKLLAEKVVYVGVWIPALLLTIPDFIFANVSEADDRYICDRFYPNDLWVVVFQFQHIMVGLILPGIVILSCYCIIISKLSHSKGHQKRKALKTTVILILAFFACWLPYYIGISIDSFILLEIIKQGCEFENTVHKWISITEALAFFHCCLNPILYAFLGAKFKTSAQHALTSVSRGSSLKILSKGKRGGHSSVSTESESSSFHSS

COc1cc([C@@H]2c3cc4c(cc3[C@@H](O[C@@H]3O[C@@H]5CO[C@@H](C)O[C@H]5[C@H](O)[C@H]3O)[C@H]3COC(=O)[C@H]23)OCO4)cc(OC)c1O [etoposide, reference compound]
cells stained positive for Annexin V [1]: 30.9%

CXCL12: purified recombinant CXCL12 chemokine from Peprotech
calcium mobilization (fluorescence) [2]: rapid but transient increase in fluorescence | CXCL12 dose giving maximal migration [3]: 0.1 ng/mL

IL-6: purified recombinant IL-6 from R&D Systems
cell proliferation (BrdU incorporation) [4]: inhibited cell growth

B1: IFNγ: purified recombinant interferon-gamma from R&D Systems (protein, UniProt P01579 24-161, looked up)
Interferon gamma: QDPYVKEAENLKKYFNAGHSDVADNGTLFLGILKNWKEESDRKIMQSQIVSFYFKLFKNFKDDQSIQKSVETIKEDMNVKFFNSNKKKRDDFEKLTNYSVTDLNVQRKAIHELIQVMAELSPAAKTGKRKRSQMLFRG
83 kD band of phosphorylated Stat3 (pStat3) [5]: not | Stat1 phosphorylation [6]: phosphorylated in response to IFNγ treatment only | cell proliferation (BrdU incorporation) [4]: inhibited cell growth
